B1: DNA-binding protein HU 1, P08821 (parent)
chain: MNKTELINAVAEASELSKKDATKAVDSVFDTILDALKNGDKIQLIGFGNFEVRERSARKGRNPQTGEEIEIPASKVPAFKPGKALKDAVAGK
B2: DNA-binding protein HU, P0A3H0 (parent)
chain: MNKTELINAVAETSGLSKKDATKAVDAVFDSITEALRKGDKVQLIGFGNFEVRERAARKGRNPQTGEEMEIPASKVPAFKPGKALKDAVK

Series [1] covers variants of B1. The note with it: Bacillus subtilis (strain 168), pH 7, Thermal, CD, Sodium phosphate 5 mM, NaCl 0.2 M, reversible: yes, whole UniProt chain shown; for ddG of mutation (higher = less stable): 48.6 °C.
Variants of B2 are the subject of series [2]. To be noted: Geobacillus stearothermophilus, pH 7, Thermal, structure 1HUE, whole UniProt chain shown; for ddG of mutation (higher = less stable): 63.9 °C.
Where [3] appears, read: CD, Sodium phosphate 5 mM, NaCl 0.2 M, reversible: yes.

By Tm is commonly meant the temperature at the midpoint of the melting transition. Regarding MNKTELINAVAEASGLSKKDATKAVDSVFDTILDALKNGDKIQLIGFGNFEVRERSARKGRNPQTGEEIEIPASKVPAFKPGKALKDAVAGK [E15G], in series [1], the “ddG of mutation (higher = less stable)” value is -1.55 kcal/mol; the Tm turned out to be 60.4 °C; the “change of melting temperature, mutant - wild type (higher = more stable)” value (“change of melting temperature, mutant” for short) was determined as 11.8 °C.

With MNKTELINAVAEASELSKKDATKAVDSVFDTILDALKNGDKVQLIGFGNFEVRERSARKGRNPQTGEEIEIPASKVPAFKPGKALKDAVAGK [I42V], in series [1], the Tm stood at 52.6 °C and the “change of melting temperature, mutant” value was 4 °C.

MNKTELINAVAEASELSKKDATKAVDSVFDTILEALKKGDKIQLIGFGNFEVRERSARKGRNPQTGEEIEIPASKVPAFKPGKALKDAVAGK [D34E N38K]: in series [1], the “ddG of mutation (higher = less stable)” value was -0.45 kcal/mol; the Tm is 52.1 °C; the “change of melting temperature, mutant” value worked out at 3.5 °C.

On to MNKTELINAVAEASELSKKDATKAVDAVFDTILDALKNGDKIQLIGFGNFEVRERSARKGRNPQTGEEIEIPASKVPAFKPGKALKDAVAGK [S27A], for which, in series [1], the “ddG of mutation (higher = less stable)” value was -0.73 kcal/mol; the Tm stood at 54.2 °C; the “change of melting temperature, mutant” value amounted to 5.6 °C.

In the case of MNKTELINAVAEASGLSKKDATKAVDAVFDTILEALKKGDKVQLIGFGNFEVRERSARKGRNPQTGEEIEIPASKVPAFKPGKALKDAVAGK [E15G S27A D34E N38K I42V], in series [1], the “ddG of mutation (higher = less stable)” value was -2.98 kcal/mol; the Tm was found to be 71.3 °C; the “change of melting temperature, mutant” value stood at 22.7 °C.

With MNKTELINAVAETSELSKKDATKAVDAVFDSITEALRKGDKVQLIGFGNFEVRERAARKGRNPQTGEEMEIPASKVPAFKPGKALKDAVK [G15E], in series [2] (setting [3]), the Tm worked out at 54 °C and the “change of melting temperature, mutant” value was -9.9 °C. Moreover, in series [2] (DSC, phosphate 0.05 M), the melting temperature (Tm) was 55.7 °C and the “change of melting temperature, mutant” value is -10.1 °C.

Turning to MNKTELINAVAETSGLSKKDATKAVDSVFDSITEALRKGDKVQLIGFGNFEVRERAARKGRNPQTGEEMEIPASKVPAFKPGKALKDAVK [A27S], in series [2] (setting [3]), the Tm was found to be 58.4 °C; the “change of melting temperature, mutant” value is -5.5 °C; the “unfolding enthalpy (van 't Hoff)” value worked out at 76.5 kcal/mol.

As to MNKTELINAVAETSGLSKKDATKAVDAVFDSITEALRKGDKVQLIGFGNFEVRERSARKGRNPQTGEEMEIPASKVPAFKPGKALKDAVK [A56S], in series [2] (setting [3]), the “ddG of mutation (higher = less stable)” value was 0.13 kcal/mol; the Tm came to 63.3 °C; the “change of melting temperature, mutant” value is -0.6 °C; the “unfolding enthalpy (van 't Hoff)” value turned out to be 83 kcal/mol.

Consider MNKTELINAVAETSGLSKKDATKAVDAVFDSITDALRKGDKVQLIGFGNFEVRERAARKGRNPQTGEEMEIPASKVPAFKPGKALKDAVK [E34D], for which the Tm in series [2] (setting [3]) came out at 61.6 °C; in series [2] (DSC, phosphate 0.05 M), 63.5 °C. Also, the “change of melting temperature, mutant” value was -2.3 °C in series [2] (setting [3]) and -2.3 °C in series [2] (DSC, phosphate 0.05 M).

In the case of MNKTELINAVAETSGLSKKDATKAVDAVFDSITEALRKGDKVQLIGFGNFEVRERAARKGRNPQTGEEIEIPASKVPAFKPGKALKDAVK [M69I], in series [2] (setting [3]), the “ddG of mutation (higher = less stable)” value came out at 0 kcal/mol; the Tm was 63.9 °C; the “change of melting temperature, mutant” value turned out to be 0 °C; the “unfolding enthalpy (van 't Hoff)” value stood at 79.2 kcal/mol.

In the case of MNKTELINAVAETSGLSKKDATKAVDAVFDSITEALRNGDKVQLIGFGNFEVRERAARKGRNPQTGEEMEIPASKVPAFKPGKALKDAVK [K38N], in series [2] (setting [3]), the Tm stood at 61.5 °C and the “change of melting temperature, mutant” value was -2.4 °C. Moreover, in series [2] (DSC, phosphate 0.05 M), the Tm was 61.7 °C and the “change of melting temperature, mutant” value was -4.1 °C.

Turning to MNKTELINAVAETSGLSKKDATKAVDAVFDTITEALRKGDKVQLIGFGNFEVRERAARKGRNPQTGEEMEIPASKVPAFKPGKALKDAVK [S31T], in series [2] (setting [3]), the “ddG of mutation (higher = less stable)” value is -0.41 kcal/mol; the Tm worked out at 65.8 °C; the “change of melting temperature, mutant” value came to 1.9 °C; the “unfolding enthalpy (van 't Hoff)” value is 81.1 kcal/mol.

MNKTELINAVAETSGLSKKDATKAVDAVFDSITEALRKGDKIQLIGFGNFEVRERAARKGRNPQTGEEMEIPASKVPAFKPGKALKDAVK [V42I]: in series [2] (setting [3]), the “ddG of mutation (higher = less stable)” value was determined as 0.82 kcal/mol; the Tm came out at 60.1 °C; the “change of melting temperature, mutant” value was -3.8 °C; the “unfolding enthalpy (van 't Hoff)” value amounted to 54.7 kcal/mol. For the same variant, in series [2] (DSC, phosphate 0.05 M), the Tm was determined as 59.6 °C and the “change of melting temperature, mutant” value is -6.2 °C.
